{"source": "paper PMC4344358", "about": "“Radiation damage to nucleoprotein complexes in macromolecular crystallography” (Journal of Synchrotron Radiation, 2015)", "biological_target": "the molecule itself", "test": "crystal structure; C.Esp1396I (0.7 mg/ml) mixed with 35 bp dsDNA at 4:1 molar ratio; sitting-drop vapour diffusion at 293 K, 50 mM MES pH 7.5, 25% MPD, 40 mM MgCl2; data at 100 K, space group P6(5), 2.8 A; eight datasets of increasing dose from one crystal"}
{"protein": "C.Esp1396I (natural protein, C.Esp1396I, bacterial helix-turn-helix controller protein of a restriction-modification system; native protein; protein chains A-D of the deposited entries; also called C-protein; controller C-protein; source: expression and purification as described earlier (McGeehan et al., 2008); pure protein) MESFLLSKVSFVIKKIRLEKGMTQEDLAYKSNLDRTYISGIERNSRNLTIKSLELIMKGLEVSDVVFFEMLIKEILKHD", "values": [{"measurement": "stoichiometry N", "result": 4}]}
